Columns and labels:
Experiment in all cases: Crosslinking/co-immunoprecipitation/mass spectrometry (TMT quantitative proteomics) to identify irisin receptors
Type in all cases: binding
[1] = biological target: T1, MLO-Y4 cell surface proteins (Mus musculus, UniProt E9Q557); conditions: co-precipitated protein Dsp (DESP_MOUSE)
T1 construct: endogenous in cells; host or cells: MLO-Y4
Outline: (§1)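 Relative protein abundance came from 6-plex TMT MS3 quantitation on an Orbitrap Fusion Lumos, after in-gel trypsin digestion of Coomassie-stained SDS-PAGE lanes. Input was a Ni-NTA pulldown (250 mM imidazole elution) of lysates from murine MLO-Y4 cells. These cells were treated on ice with His-tagged irisin or adipsin (10 nM, 20 min) in serum-free medium, then crosslinked with 1.5 mM DTSSP for 30 min.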

[2] = biological target: T2, MLO-Y4 cell surface proteins (Mus musculus, UniProt Q99LC5); conditions: co-precipitated protein Etfa (ETFA_MOUSE)
T2 construct: endogenous in cells; host or cells: MLO-Y4
T2 sequence (Q99LC5 20-333): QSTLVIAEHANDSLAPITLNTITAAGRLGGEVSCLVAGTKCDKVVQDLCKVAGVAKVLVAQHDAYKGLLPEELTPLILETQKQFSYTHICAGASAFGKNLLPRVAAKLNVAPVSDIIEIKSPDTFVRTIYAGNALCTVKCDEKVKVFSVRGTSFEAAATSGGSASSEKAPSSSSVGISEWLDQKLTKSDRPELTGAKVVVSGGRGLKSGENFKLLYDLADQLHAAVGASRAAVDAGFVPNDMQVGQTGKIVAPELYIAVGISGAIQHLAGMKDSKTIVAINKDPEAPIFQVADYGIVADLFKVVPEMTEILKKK
Outline: as §1

[3] = biological target: T3, MLO-Y4 cell surface proteins (Mus musculus, UniProt Q9D125); conditions: co-precipitated protein Mrps25 (RT25_MOUSE)
T3 construct: endogenous in cells; host or cells: MLO-Y4
Outline: as §1

[4] = biological target: T4, MLO-Y4 cell surface proteins (Mus musculus, UniProt P97360); conditions: co-precipitated protein Etv6 (ETV6_MOUSE)
T4 construct: endogenous in cells; host or cells: MLO-Y4
T4 sequence (P97360 1-485): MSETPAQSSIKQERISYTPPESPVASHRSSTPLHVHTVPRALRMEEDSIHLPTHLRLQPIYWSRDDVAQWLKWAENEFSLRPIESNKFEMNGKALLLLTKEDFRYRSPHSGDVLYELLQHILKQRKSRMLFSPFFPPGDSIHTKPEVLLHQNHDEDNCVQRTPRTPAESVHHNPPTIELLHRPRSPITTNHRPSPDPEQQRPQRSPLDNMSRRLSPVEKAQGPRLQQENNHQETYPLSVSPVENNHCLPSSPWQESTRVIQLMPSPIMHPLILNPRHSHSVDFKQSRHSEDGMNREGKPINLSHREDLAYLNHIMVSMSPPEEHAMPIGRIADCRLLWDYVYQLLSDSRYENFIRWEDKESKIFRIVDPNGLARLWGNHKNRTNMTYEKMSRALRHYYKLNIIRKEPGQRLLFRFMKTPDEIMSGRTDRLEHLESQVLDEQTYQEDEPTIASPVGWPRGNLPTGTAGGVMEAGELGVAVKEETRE
Outline: as §1

T1 sequence (E9Q557 whole entry): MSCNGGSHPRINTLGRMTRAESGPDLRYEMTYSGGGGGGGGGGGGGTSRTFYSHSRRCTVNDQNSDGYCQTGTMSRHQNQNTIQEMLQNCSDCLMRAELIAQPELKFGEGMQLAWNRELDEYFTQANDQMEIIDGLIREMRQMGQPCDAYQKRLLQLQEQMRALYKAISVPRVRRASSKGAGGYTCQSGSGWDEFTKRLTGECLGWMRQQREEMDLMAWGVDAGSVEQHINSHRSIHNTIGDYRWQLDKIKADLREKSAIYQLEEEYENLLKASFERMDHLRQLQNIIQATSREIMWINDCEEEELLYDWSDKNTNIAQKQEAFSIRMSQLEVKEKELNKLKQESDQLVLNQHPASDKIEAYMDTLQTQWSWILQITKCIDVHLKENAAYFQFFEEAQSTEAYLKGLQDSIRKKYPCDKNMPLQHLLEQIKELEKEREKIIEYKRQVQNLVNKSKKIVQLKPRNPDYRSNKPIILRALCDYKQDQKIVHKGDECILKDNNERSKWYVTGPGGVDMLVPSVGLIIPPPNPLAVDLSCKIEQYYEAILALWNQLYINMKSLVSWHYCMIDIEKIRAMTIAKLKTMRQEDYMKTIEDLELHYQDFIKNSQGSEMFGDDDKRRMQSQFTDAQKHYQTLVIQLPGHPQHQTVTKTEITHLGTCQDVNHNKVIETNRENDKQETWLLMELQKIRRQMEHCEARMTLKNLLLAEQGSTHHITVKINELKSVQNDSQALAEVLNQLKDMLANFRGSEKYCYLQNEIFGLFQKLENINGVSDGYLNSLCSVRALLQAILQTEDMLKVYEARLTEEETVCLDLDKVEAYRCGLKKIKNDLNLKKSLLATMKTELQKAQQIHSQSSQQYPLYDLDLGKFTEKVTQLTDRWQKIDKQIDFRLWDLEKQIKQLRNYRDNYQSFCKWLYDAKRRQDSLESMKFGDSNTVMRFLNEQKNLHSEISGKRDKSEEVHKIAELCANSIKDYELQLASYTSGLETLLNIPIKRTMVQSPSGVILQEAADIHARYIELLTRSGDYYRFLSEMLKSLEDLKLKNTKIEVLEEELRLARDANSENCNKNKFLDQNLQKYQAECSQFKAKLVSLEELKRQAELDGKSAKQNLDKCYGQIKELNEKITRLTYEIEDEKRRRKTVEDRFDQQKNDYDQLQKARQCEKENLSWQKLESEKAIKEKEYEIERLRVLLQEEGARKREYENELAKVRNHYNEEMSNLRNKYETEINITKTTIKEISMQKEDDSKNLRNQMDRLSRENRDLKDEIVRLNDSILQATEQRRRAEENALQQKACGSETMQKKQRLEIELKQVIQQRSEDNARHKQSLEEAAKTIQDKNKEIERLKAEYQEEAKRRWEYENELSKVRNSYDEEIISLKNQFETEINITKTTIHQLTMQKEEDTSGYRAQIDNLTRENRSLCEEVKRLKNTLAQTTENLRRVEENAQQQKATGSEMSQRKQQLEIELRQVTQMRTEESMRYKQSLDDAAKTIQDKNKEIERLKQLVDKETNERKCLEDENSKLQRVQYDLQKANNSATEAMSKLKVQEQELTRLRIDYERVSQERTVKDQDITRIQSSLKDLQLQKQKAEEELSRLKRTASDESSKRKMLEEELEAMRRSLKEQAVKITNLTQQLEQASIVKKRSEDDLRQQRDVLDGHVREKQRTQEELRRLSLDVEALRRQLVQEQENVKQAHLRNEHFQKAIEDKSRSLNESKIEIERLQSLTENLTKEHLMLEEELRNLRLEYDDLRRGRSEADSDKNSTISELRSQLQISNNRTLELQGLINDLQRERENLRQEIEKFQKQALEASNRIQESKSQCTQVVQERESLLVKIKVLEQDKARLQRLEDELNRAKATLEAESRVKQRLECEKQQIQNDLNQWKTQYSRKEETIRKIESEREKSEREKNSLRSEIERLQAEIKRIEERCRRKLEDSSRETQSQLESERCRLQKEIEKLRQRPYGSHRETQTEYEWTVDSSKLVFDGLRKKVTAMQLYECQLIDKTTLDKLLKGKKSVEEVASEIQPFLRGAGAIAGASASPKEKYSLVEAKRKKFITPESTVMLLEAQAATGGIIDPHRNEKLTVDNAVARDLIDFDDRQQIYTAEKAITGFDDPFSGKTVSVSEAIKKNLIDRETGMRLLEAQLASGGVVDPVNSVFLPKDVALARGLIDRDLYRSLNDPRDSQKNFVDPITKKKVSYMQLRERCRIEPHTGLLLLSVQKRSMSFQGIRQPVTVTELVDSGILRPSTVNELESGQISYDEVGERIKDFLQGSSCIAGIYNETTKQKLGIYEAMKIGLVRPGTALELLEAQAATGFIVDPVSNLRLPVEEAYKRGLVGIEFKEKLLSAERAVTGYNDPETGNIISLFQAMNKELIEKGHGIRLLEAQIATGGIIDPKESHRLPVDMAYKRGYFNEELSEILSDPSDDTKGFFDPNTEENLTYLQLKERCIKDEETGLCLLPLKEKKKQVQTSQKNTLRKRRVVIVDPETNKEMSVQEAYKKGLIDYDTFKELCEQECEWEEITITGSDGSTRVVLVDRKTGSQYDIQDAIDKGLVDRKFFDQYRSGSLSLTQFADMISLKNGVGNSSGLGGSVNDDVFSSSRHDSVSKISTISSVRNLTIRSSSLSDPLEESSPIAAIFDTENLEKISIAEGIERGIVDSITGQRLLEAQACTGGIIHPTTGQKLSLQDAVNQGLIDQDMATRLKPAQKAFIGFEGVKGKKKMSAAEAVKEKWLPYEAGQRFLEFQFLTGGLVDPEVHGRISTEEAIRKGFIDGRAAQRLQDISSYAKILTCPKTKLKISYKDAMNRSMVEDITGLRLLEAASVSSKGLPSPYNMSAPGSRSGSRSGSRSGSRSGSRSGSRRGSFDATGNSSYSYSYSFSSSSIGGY

TMT signal-to-noise ratio [1]: 79.7679
TMT signal-to-noise ratio [2]: 80.1458
TMT signal-to-noise ratio [3]: 84.7592
TMT signal-to-noise ratio [4]: 137.108
Substance: adipsin
